Results on two substances are retold here after article PMC7610479.

The target in test [1] is Survival Motor Neuron (SMN) protein, recombinant (UniProt Q16637). In words: SPR. (In general: Surface plasmon resonance follows binding to a sensor surface in real time, without labels.)
Test [2] addresses recombinant SMN (Survival Motor Neuron protein) (UniProt Q16637). In words: SPR.

For orientation: Kd means a measure of binding affinity in units of concentration. Take “purified SMN-free 80S ribosomes from NSC-34 cells depleted from SMN (from UniProt P61255 1-145) (complex)”: the Kd in test [1] came out at 10 pM.

For orientation: koff means the rate constant with which the complex falls apart. As usually defined, the kon is the second-order rate constant of association. For “purified SMN-free 80S ribosomes from NSC-34 cells depleted of SMN (complex)”, in test [2], the Kd came out at 9.8 pM, the koff stood at 9.4e-05 s⁻¹ and the kon was determined as 9.7e+06 M⁻¹ s⁻¹.
